In patent publication US20230011916A1 (BEIGENE, published 2023):
Residue numbers refer to the chain shown, from its start. Numbers in names are those of the source. Values belong to the binder of their own block, whether it stands above or below them.

Tests used:
[1] = target: T1, recombinant OX40 protein with a His tag (Cat: 10481-H08H, Sino Biological) (UniProt P43489 29-216); assay: SPR, BIAcore T-200; antibody captured by anti-human IgG, OX40-His flowed; Test 1
T1 construct: Bought protein; also called OX40-His (bought); not shown: His tag
T1 sequence (looked up): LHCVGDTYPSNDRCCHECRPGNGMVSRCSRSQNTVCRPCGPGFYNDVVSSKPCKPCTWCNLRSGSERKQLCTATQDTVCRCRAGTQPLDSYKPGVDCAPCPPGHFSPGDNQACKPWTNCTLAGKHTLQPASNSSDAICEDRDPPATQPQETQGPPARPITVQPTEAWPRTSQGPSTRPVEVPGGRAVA
Description: (§1) The anti-OX40 antibodies were characterized for their binding kinetics and affinity by SPR assays using BIAcore™ T-200 (GE Life Sciences). Briefly, anti-human IgG antibody was immobilized on an activated CM5 biosensorchip (Cat: BR100530, GE Life Sciences). An antibody with human IgG Fc region was flowed over the chip surface and captured by anti-human IgG antibody. Then a serial dilution of recombinant OX40 protein with a His tag (Cat: 10481-H08H, Sino Biological) was flowed over the chip surface and changes in surface plasmon resonance signals were analyzed to calculate the association rates (ka) and dissociation rates (kd) by using the one-to-one Langmuir binding model (BIA Evaluation Software, GE Life Sciences). The equilibrium dissociation constant (KD) was calculated as the ratio kd/ka.

[2] = target: T2, full-length human OX40 expressed on HuT78 cells (HuT78/OX40) (human, UniProt P43489 29-277); assay: flow cytometry on live HuT78/OX40 cells; Test 2
T2 sequence: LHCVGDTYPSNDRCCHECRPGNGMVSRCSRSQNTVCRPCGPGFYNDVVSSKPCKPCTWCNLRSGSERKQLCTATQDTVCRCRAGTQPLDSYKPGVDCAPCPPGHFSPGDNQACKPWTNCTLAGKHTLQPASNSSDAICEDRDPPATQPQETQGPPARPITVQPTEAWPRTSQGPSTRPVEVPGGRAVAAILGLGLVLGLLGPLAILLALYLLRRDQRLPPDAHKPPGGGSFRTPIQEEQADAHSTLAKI
Method: (§2) To evaluate the binding activity of anti-OX40 antibodies to bind OX40 expressed on the surface of live cells, HuT78 cells were transfected with human OX40 as described in Example 1 to create an OX40 expressing line. Live HuT78/OX40 cells were seeded in 96-well plate and were incubated with a serial dilution of various anti-OX40 antibodies. Goat anti-Human IgG-FITC (Cat: A0556, Beyotime) was used as a secondary antibody to detect antibody binding to the cell surface. EC₅₀ values for dose-dependent binding to human OX40 were determined by fitting the dose-response data to the four-parameter logistic model with GraphPad Prism.

[3] = target: T1, recombinant OX40 protein with a His tag …; assay: SPR, BIAcore T-200; antibody captured by anti-human IgG, OX40-His flowed; Mean
Description: as §1

[4] = target: T2, full-length human OX40 expressed on …; assay: flow cytometry on live HuT78/OX40 cells; Mean
Method: as §2

[5] = target: T2, full-length human OX40 expressed on …; assay: flow cytometry on live HuT78/OX40 cells; Test 1
Method: as §2

[6] = target: T1, recombinant OX40 protein with a His tag …; assay: SPR, BIAcore T-200; antibody captured by anti-human IgG, OX40-His flowed; Test 2
Description: as §1

[7] = target: T2, full-length human OX40 expressed on …; assay: FACS; cells not named on the sheet, HuT78/OX40 cells as in Example 5
[8] = target: T1, recombinant OX40 protein with a His tag …; assay: Biacore (SPR); antigen not named on the sheet, OX40-His as in Example 4
[9] = target: T2, full-length human OX40 expressed on …; assay: flow cytometry on HuT78/OX40 cells
Method: (§3) Goat anti-Human IgG-FITC (Cat: A0556, Beyotime) was used as a secondary antibody for detection. EC₅₀ values for dose-dependent binding to human and cynomolgus monkey native OX40s were determined by fitting the dose-response data to the four-parameter logistic model with GraphPad Prism.

[10] = target: T3, cynomolgus OX40 expressed on HuT78 cells (HuT78/cynoOX40) (cynomolgus monkey); assay: flow cytometry on HuT78/cynoOX40 cells
T3 construct: whole, on cells; also called cynomolgus monkey OX40
Method: as §3

[11] = target: T2, full-length human OX40 expressed on …; assay: FACS; cells not named on the sheet, HuT78/OX40 cells as in Example 5; remark: listed apart in the source
[12] = target: T1, recombinant OX40 protein with a His tag …; assay: Biacore (SPR); antigen not named on the sheet, OX40-His as in Example 4; remark: listed apart in the source

B2: 445-2 (antibody, V domains shown)
VH: QVQLVQSGAEVKKPGSSVKVSCKASGYKFTSYIIHWVRQAPGQGLEWMGYINPYNEGTRYAQKFQGRVTLTADKSTSTAYMELSSLRSEDTAVYYCARGYYGSSYAMDYWGQGTTVTVSS
VL: DIQMTQSPSSLSASVGDRVTITCSASQGISNYLNWYQQKPGKAIKLLIYDASTLYSGVPSRFSGSGSGTDFTLTISSLQPEDFATYYCQQYSKLPYTFGGGTKVEIK
EC50 [7]: 0.397 µg/mL | Top(MFI) [7]: 760 MFI | Ka [1]: 7.1e+07 M⁻¹ | Kd [1]: 14.2 nM | koff [1]: 0.0039 s⁻¹ | kon [1]: 276000 M⁻¹ s⁻¹ | EC50 [2]: 0.363 µg/mL | Ka [3]: 7.5e+07 M⁻¹ | Kd [3]: 13.5 nM | EC50 [4]: 0.343 µg/mL | Top(MFI) [4]: 620 MFI | EC50 [5]: 0.323 µg/mL | Ka [6]: 7.8e+07 M⁻¹ | Kd [6]: 12.8 nM | koff [6]: 0.00264 s⁻¹ | kon [6]: 206000 M⁻¹ s⁻¹

B3: 445-3(Q62E)-3(S24R) (antibody, V domains shown)
VH: B2 VH with Q62E
VL: B2 VL with S24R
EC50 [7]: 0.363 µg/mL | Top(MFI) [7]: 760 MFI | Kd [8]: 11.7 nM | koff [8]: 0.00227 s⁻¹ | kon [8]: 194000 M⁻¹ s⁻¹

B4: 445-3(A61N-K63R)-3 (antibody, V domains shown)
VH: B2 VH with A61N, K63R
VL: B2 VL with S24R, G41D, K42G
EC50 [7]: 0.483 µg/mL | Top(MFI) [7]: 1100 MFI | Kd [8]: 9.65 nM | koff [8]: 0.00155 s⁻¹ | kon [8]: 161000 M⁻¹ s⁻¹

B5: 445-3 IgG4 (antibody, V domains shown)
VH: B2 VH with A61N
VL: B2 VL with S24R, G41D, K42G
Ka [1]: 1e+08 M⁻¹ | Kd [1]: 10 nM | Ka [3]: 1e+08 M⁻¹ | Kd [3]: 10 nM | EC50 [4]: 0.263 µg/mL | Top(MFI) [4]: 892 MFI | EC50 [5]: 0.263 µg/mL

B6: 445-3 (antibody, V domains shown)
VH: B2 VH with A61N
VL: B2 VL with S24R, G41D, K42G
EC50 [7]: 0.462 µg/mL | Top(MFI) [7]: 990 MFI | EC50 [9]: 0.174 µg/mL | Ka [1]: 1.09e+08 M⁻¹ | Kd [1]: 9.16 nM | EC50 [2]: 0.319 µg/mL | Ka [3]: 1.06e+08 M⁻¹ | Kd [3]: 9.47 nM | EC50 [4]: 0.328 µg/mL | Top(MFI) [4]: 910 MFI | EC50 [10]: 0.171 µg/mL | EC50 [5]: 0.337 µg/mL | Kd [8]: 8.51 nM | Ka [6]: 1.03e+08 M⁻¹ | Kd [6]: 9.77 nM

B7: 445-3(A61N-K28R)-3 (antibody, V domains shown)
VH: B2 VH with K28R, A61N
VL: B2 VL with S24R, G41D, K42G
EC50 [7]: 0.369 µg/mL | Top(MFI) [7]: 1080 MFI | Kd [8]: 7.35 nM | koff [8]: 0.00115 s⁻¹ | kon [8]: 157000 M⁻¹ s⁻¹

B8: 445-1 (antibody, V domains shown)
VH: B2 VH with E56D, A61N, A72S
VL: B2 VL with A51T, F71Y
EC50 [11]: 0.336 µg/mL | Top(MFI) [11]: 500 MFI | Ka [1]: 5.6e+07 M⁻¹ | Kd [1]: 17.8 nM | koff [1]: 0.00277 s⁻¹ | kon [1]: 156000 M⁻¹ s⁻¹ | EC50 [2]: 0.278 µg/mL | Ka [3]: 5.9e+07 M⁻¹ | Kd [3]: 17.1 nM | EC50 [4]: 0.285 µg/mL | Top(MFI) [4]: 525 MFI | EC50 [5]: 0.293 µg/mL | Ka [6]: 6.1e+07 M⁻¹ | Kd [6]: 16.4 nM | koff [6]: 0.00389 s⁻¹ | kon [6]: 237000 M⁻¹ s⁻¹

B9: 445-2(M48I)-1 (antibody, human IgG1, V domains shown)
VH: B2 VH with M48I, E56D, A61N, A72S
VL: B2 VL with A51T, F71Y
EC50 [11]: 0.353 µg/mL | Top(MFI) [11]: 480 MFI | Kd [12]: 15.5 nM | koff [12]: 0.00356 s⁻¹ | kon [12]: 230000 M⁻¹ s⁻¹

B10: 445-1-2(S10T/E81D/D70E) (antibody, human IgG1, V domains shown)
VH: B2 VH with E56D, A61N, A72S
VL: B2 VL with S10T, A51T, D70E, F71Y, E81D
EC50 [11]: 0.28 µg/mL | Top(MFI) [11]: 510 MFI | Kd [12]: 14.9 nM | koff [12]: 0.0034 s⁻¹ | kon [12]: 228000 M⁻¹ s⁻¹

B13: 445-1-2(S24G) (antibody, human IgG1, V domains shown)
VH: B2 VH with E56D, A61N, A72S
VL: B2 VL with S24G, A51T, F71Y
EC50 [11]: 0.307 µg/mL | Top(MFI) [11]: 470 MFI | Kd [12]: 16.2 nM | koff [12]: 0.0036 s⁻¹ | kon [12]: 222000 M⁻¹ s⁻¹

Next, values leading:

Ka [1]: 1.22e+08 M⁻¹ | Kd [1]: 8.26 nM | koff [1]: 0.00143 s⁻¹ | kon [1]: 174000 M⁻¹ s⁻¹ | EC50 [2]: 0.277 µg/mL | Ka [3]: 1.41e+08 M⁻¹ | Kd [3]: 7.28 nM | EC50 [4]: 0.299 µg/mL | Top(MFI) [4]: 725 MFI | EC50 [5]: 0.321 µg/mL | Ka [6]: 1.59e+08 M⁻¹ | Kd [6]: 6.3 nM | koff [6]: 0.00167 s⁻¹ | kon [6]: 265000 M⁻¹ s⁻¹
B1: ch445 (antibody, V domains shown)
VH: EVQLQQSGPELVKPGASVKMSCKASGYKFTSYIIHWVKQKPGQGLEWIGYINPYNDGTRYNEKFKGKATLTSDKSSSTAYMEYSSLTSEDSAVYYCARGYYGSSYAMDYWGQGTSVTVSS
VL: DIQMTQTTSSLSASLGDRVTISCSASQGISNYLNWYQQKPDGTIKLLIYDTSTLYSGVPSRFSGSGSGTDYFLTISNLEPEDIATYYCQQYSKLPYTFGGGTKLEKK
notes: also called Mu445 variable domains fused to human IgG1wt/kappa constant regions

EC50 [7]: 0.405 µg/mL | Top(MFI) [7]: 800 MFI | Kd [8]: 13.1 nM | koff [8]: 0.00381 s⁻¹ | kon [8]: 291000 M⁻¹ s⁻¹
B11: 445-3(T30S)-3(S24R) (antibody, V domains shown)
VH: B2 VH with T30S
VL: B2 VL with S24R

EC50 [7]: 0.318 µg/mL | Top(MFI) [7]: 790 MFI | Kd [8]: 12.4 nM | koff [8]: 0.00232 s⁻¹ | kon [8]: 187000 M⁻¹ s⁻¹
B12: 445-3(Q62E/Q65K)-3(S24R) (antibody, V domains shown)
VH: B2 VH with Q62E, Q65K
VL: B2 VL with S24R

EC50 [7]: 0.337 µg/mL | Top(MFI) [7]: 1050 MFI | Kd [8]: 7.9 nM | koff [8]: 0.00168 s⁻¹ | kon [8]: 212000 M⁻¹ s⁻¹
B14: 445-3-3(G41D-K42G-S24R-K93R) (antibody, V domains shown)
VH: B2 VH with A61N
VL: B2 VL with S24R, G41D, K42G, K93R
